In the assay the target is T1, Arabidopsis 14-3-3 protein GF14phi fused to GST (Arabidopsis, UniProt P46077 1-267).
T1 construct: 14-3-3 protein GF14phi of Arabidopsis; also called GST-14-3-3; source: E. coli, loaded on glutathione beads
T1 sequence (looked up): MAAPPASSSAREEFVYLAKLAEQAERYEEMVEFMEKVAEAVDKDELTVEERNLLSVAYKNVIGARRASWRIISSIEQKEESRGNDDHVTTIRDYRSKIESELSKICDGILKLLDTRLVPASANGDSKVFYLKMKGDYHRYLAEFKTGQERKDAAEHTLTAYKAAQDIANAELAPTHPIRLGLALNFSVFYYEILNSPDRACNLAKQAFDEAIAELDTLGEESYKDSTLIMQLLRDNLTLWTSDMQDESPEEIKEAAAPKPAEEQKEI
The experiment in a line: pull-down; GST-GF14phi (0.4 nmole) on glutathione beads; 15 µM peptide phosphorylated by OST1 with ATP^γ32; 30 min at 25°C; 20 mM Tris-HCl pH 7.5, 150 mM NaCl, 1 mM CaCl2, 1 mM DTT, 0.05% Tween20; bound peptide counted by Cerenkov counting. The following applies: both partners purified.

Where no end group is shown, it is not given here. [ ]: non-standard residue; d: D form. pT = C[C@@H](OP(=O)(O)O)[C@H](N)C(=O)O

Results on 1 molecule are retold here after paper PMC2978106, “The Arabidopsis ABA-Activated Kinase OST1 Phosphorylates the bZIP Transcription Factor ABF3 and Creates a 14-3-3 Binding Site Involved in Its Turnover” (PLoS ONE, 2010).

B1: ABF3T451 peptide phosphorylated by OST1 (peptide)
peptide: KKRQCLRRTL[pT]GPW
modifications: also: phosphothreonine at T451 (T9 or T11 of chain, not fixed by letters)
notes: residues printed before L446 of the ABF3T451 peptide; C-terminal end of ABF3 (C4 domain, LXRXXTXP motif with T451), Arabidopsis thaliana, At4g34000; It holds two threonines (T449, T451); also called pABF3T451; phospho-ABF3T451
For the molecule B1, the binding result is “binds”.
